Results on five sequences are retold here after the supplement of paper PMC5998384.

The subject of data set [1] is HeLa Kyoto. In words: melting temperature (median over replicates), in situ; higher = more thermally stable.
For data set [2], the system named is HeLa Kyoto. In words: solubility in G1/S (NP-40 vs SDS abundance) (log2 ratio); higher = more soluble. The note with it: cell cycle stage: G1/S.
For data set [3], the system named is HeLa Kyoto. In words: solubility change mitosis vs G1/S (difference of NP-40 vs SDS log2 ratios) (log2 ratio difference); higher = more soluble in mitosis.
In data set [4] the test system is HeLa Kyoto. In words: thermal stability score vs G1/S (z-score of summed log2 fold changes over temperatures); higher = more thermally stable than in G1/S.
Setting [5] is: cell cycle stage: early G1 (4.5 h after nocodazole release).
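Wherever melting temperature (median over replicates), in situ is given: HeLa Kyoto cells synchronized by double thymidine or nocodazole block, proteins quantified by TMT10plex mass spectrometry, three independent biological replicates.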
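Wherever solubility change mitosis vs G1/S (difference of NP-40 vs SDS log2 ratios) is given: synchronized HeLa Kyoto cells (double thymidine block for G1/S, nocodazole release for mitosis), protein amounts in NP-40 versus SDS lysates quantified by mass spectrometry, three biological replicates.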
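Wherever solubility in G1/S (NP-40 vs SDS abundance) is given: HeLa Kyoto cells arrested at G1/S by double thymidine block, proteins quantified by TMT10plex mass spectrometry in mild NP-40 versus SDS extracts, three biological replicates.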
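Wherever thermal stability score vs G1/S (z-score of summed log2 fold changes over temperatures) is given: synchronized HeLa Kyoto cells, proteins quantified by TMT10plex mass spectrometry, three biological replicates, mitosis taken 0.5 h after nocodazole release, G1/S directly after double thymidine block.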

With “MAAAGVVSGKIIYEQEGVYIHSSCGKTNDQDGLISGILRVLEKDAEVIVDWRPLDDALDSSSILYARKDSSSVVEWTQAPKERGHRGSEHLNSYEAEWDMVNTVSFKRKPHTNGDAPSHRNGKSKWSFLFSLTDLKSIKQNKEGMGWSYLVFCLKDDVVLPALHFHQGDSKLLIESLEKYVVLCESPQDKRTLLVNCQNKSLSQSFENLLDEPAYGLIQAGLLDRRKLLWAIHHWKKIKKDPYTATMIGFSKVTNYIFDSLRGSDPSTHQRPPSEMADFLSDAIPGLKINQQEEPGFEVITRIDLGERPVVQRREPVSLEEWTKNIDSEGRILNVDNMKQMIFRGGLSHALRKQAWKFLLGYFPWDSTKEERTQLQKQKTDEYFRMKLQWKSISQEQEKRNSRLRDYRSLIEKDVNRTDRTNKFYEGQDNPGLILLHDILMTYCMYDFDLGYVQGMSDLLSPLLYVMENEVDAFWCFASYMDQMHQNFEEQMQGMKTQLIQLSTLLRLLDSGFCSYLESQDSGYLYFCFRWLLIRFKREFSFLDILRLWEVMWTELPCTNFHLLLCCAILESEKQQIMEKHYGFNEILKHINELSMKIDVEDILCKAEAISLQMVKCKELPQAVCEILGLQGSEVTTPDSDVGEDENVVMTPCPTSAFQSNALPTLSASGARNDSPTQIPVSSDVCRLTPA [TBC1D15]”, the values for the melting temperature in the data set with HeLa Kyoto [1] (cell cycle stage: G1/S) and in the data set with HeLa Kyoto [1] (cell cycle stage: mitosis) were 49.7 °C and 50.2 °C, respectively. In the data set with HeLa Kyoto [2], the “solubility in G1/S (log2)” value was -0.164. In the data set with HeLa Kyoto [3], the “solubility change mitosis (log2)” value was -0.17. The thermal stability score is -0.47 in the data set on HeLa Kyoto [4] (setting [5]) and 0.539 in the data set with HeLa Kyoto [4] (cell cycle stage: mitosis).
For the sequence “MAAAGWRDGSGQEKYRLVVVGGGGVGKSALTIQFIQSYFVTDYDPTIEDSYTKQCVIDDRAARLDILDTAGQEEFGAMREQYMRTGEGFLLVFSVTDRGSFEEIYKFQRQILRVKDRDEFPMILIGNKADLDHQRQVTQEEGQQLARQLKVTYMEASAKIRMNVDQAFHELVRVIRKFQEQECPPSPEPTRKEKDKKGCHCVIF [RRAS2]”, the values for the melting temperature in the data set with HeLa Kyoto [1] (cell cycle stage: G1/S) and in the data set on HeLa Kyoto [1] (cell cycle stage: mitosis) were 55.4 °C and 55.3 °C, respectively. For the same sequence, in the data set on HeLa Kyoto [2], the “solubility in G1/S (log2)” value was -0.172. The “solubility change mitosis (log2)” value in the data set with HeLa Kyoto [3] is -0.0849. Besides, the thermal stability score came to 1.24 in the data set on HeLa Kyoto [4] (setting [5]) and 1.12 in the data set on HeLa Kyoto [4] (cell cycle stage: mitosis).
Turning to “MAAALFVLLGFALLGTHGASGAAGFVQAPLSQQRWVGGSVELHCEAVGSPVPEIQWWFEGQGPNDTCSQLWDGARLDRVHIHATYHQHAASTISIDTLVEEDTGTYECRASNDPDRNHLTRAPRVKWVRAQAVVLVLEPGTVFTTVEDLGSKILLTCSLNDSATEVTGHRWLKGGVVLKEDALPGQKTEFKVDSDDQWGEYSCVFLPEPMGTANIQLHGPPRVKAVKSSEHINEGETAMLVCKSESVPPVTDWAWYKITDSEDKALMNGSESRFFVSSSQGRSELHIENLNMEADPGQYRCNGTSSKGSDQAIITLRVRSHLAALWPFLGIVAEVLVLVTIIFIYEKRRKPEDVLDDDDAGSAPLKSSGQHQNDKGKNVRQRNSS [BSG]”, the melting temperature with HeLa Kyoto [1] (cell cycle stage: G1/S) was 59.1 °C; in the data set on HeLa Kyoto [1] (cell cycle stage: mitosis), 59.8 °C. For the same sequence, in the data set on HeLa Kyoto [2], the “solubility in G1/S (log2)” value amounted to 0.205. In addition, the “solubility change mitosis (log2)” value with HeLa Kyoto [3] was -0.00749. Also, the thermal stability score is -0.849 in the data set with HeLa Kyoto [4] (setting [5]) and -2.75 with HeLa Kyoto [4] (cell cycle stage: mitosis).
Regarding “MAAALLARASGPARRALCPRAWRQLHTIYQSVELPETHQMLLQTCRDFAEKELFPIAAQVDKEHLFPAAQVKKMGGLGLLAMDVPEELGGAGLDYLAYAIAMEEISRGCASTGVIMSVNNSLYLGPILKFGSKEQKQAWVTPFTSGDKIGCFALSEPGNGSDAGAASTTARAEGDSWVLNGTKAWITNAWEASAAVVFASTDRALQNKGISAFLVPMPTPGLTLGKKEDKLGIRGSSTANLIFEDCRIPKDSILGEPGMGFKIAMQTLDMGRIGIASQALGIAQTALDCAVNYAENRMAFGAPLTKLQVIQFKLADMALALESARLLTWRAAMLKDNKKPFIKEAAMAKLAASEAATAISHQAIQILGGMGYVTEMPAERHYRDARITEIYEGTSEIQRLVIAGHLLRSYRS [ACADS]”, the values for the melting temperature with HeLa Kyoto [1] (cell cycle stage: G1/S) and in the data set with HeLa Kyoto [1] (cell cycle stage: mitosis) were 55.3 °C and 53.9 °C, respectively. For the same sequence, the “solubility in G1/S (log2)” value in the data set with HeLa Kyoto [2] stood at 0.191. The “solubility change mitosis (log2)” value with HeLa Kyoto [3] was -0.159. The results for the thermal stability score in the data set on HeLa Kyoto [4] (setting [5]) and in the data set on HeLa Kyoto [4] (cell cycle stage: mitosis) were -1.85 and -3.37, respectively.
With “MAAAVVLAAGLRAARRAVAATGVRGGQVRGAAGVTDGNEVAKAQQATPGGAAPTIFSRILDKSLPADILYEDQQCLVFRDVAPQAPVHFLVIPKKPIPRISQAEEEDQQLLGHLLLVAKQTAKAEGLGDGYRLVINDGKLGAQSVYHLHIHVLGGRQLQWPPG [HINT2]”, the melting temperature in the data set with HeLa Kyoto [1] (cell cycle stage: G1/S) and in the data set with HeLa Kyoto [1] (cell cycle stage: mitosis) was 54.9 °C in each case. In addition, the “solubility in G1/S (log2)” value in the data set on HeLa Kyoto [2] was 0.565. Further, the “solubility change mitosis (log2)” value in the data set with HeLa Kyoto [3] is -0.0342. The figures for the thermal stability score in the data set on HeLa Kyoto [4] (setting [5]) and in the data set with HeLa Kyoto [4] (cell cycle stage: mitosis) were -0.929 and -2.12, respectively.
